Experimental data published in patent publication US6713294B1, “DNA glycosylases and their use” (priority 1996, dated 2004).
Numbering of substitutions follows the chain as printed.

B1: Tyr147Phe: human UDG (UNGΔ84) mutant with Tyr147 replaced by Phe (protein)
chain: MGVFCLGPWGLGRKLRTPGKGPLQLLSRLCGDHLQAIPAKKAPAGQEEPGTPPSSPLSAEQLDRIQRNKAAALLRLAARNVPVGFGESWKKHLSGEFGKPYFIKLMGFVAEERKHYTVYPPPHQVFTWTQMCDIKDVKVVILGQDPFHGPNQAHGLCFSVQRPVPPPPSLENIYKELSTDIEDFVHPGHGDLSGWAKQGVLLLNAVLTVRAHQANSHKERGWEQFTDAVVSWLNQNSNGLVFLLWGSYAQKKGSAIDRKRHHVLQTAHPSPLSVYRGFFGCRHFSKTNELLQKSGKKPIDWKEL
B2: Ser169Ala: human UDG (UNGΔ84) mutant with Ser169 replaced by Ala (protein)
chain: B1 chain with F147Y, S169A
B3: His268Leu: human UDG (UNGΔ84) mutant with His268 replaced by Leu (protein)
chain: B1 chain with F147Y, H268L
B4: Asp145Glu: human UDG (UNGΔ84) mutant with Asp145 replaced by Glu (protein)
chain: B1 chain with D145E, F147Y
B5: Asp145Asn: human UDG (UNGΔ84) mutant with Asp145 replaced by Asn (protein)
chain: B1 chain with D145N, F147Y
B6: Asn204Gln: human UDG (UNGΔ84) mutant with Asn204 replaced by Gln (protein)
chain: B1 chain with F147Y, N204Q
B7: Gln144Leu: human UDG (UNGΔ84) mutant with Gln144 replaced by Leu (protein)
chain: B1 chain with Q144L, F147Y

tested on: [^3H]dUMP-labelled DNA; assay: Release of uracil from ds or ss [3H]dUMP-labelled DNA; assay type: biochemical; conditions: double-stranded uracil DNA, 2 μM, 10 min, 37° C.; 0 = below detection limit (10 pmol per mg protein per min)
Procedure: (§1) To test enzymatic substrate specificities, 250 ng purified human “wild type” UDG (UNGΔ84), UNGΔ84Tyr147Ala or UNGΔ84Asn204Asp, were mixed with 200 ng ds- or ss-[^3H]cytosine-labelled DNA (150 mCi/mmol), or ds- or ss-[^3H]thymine-labelled DNA (100 mCi/mmol) in 10 mM NaCl, 20 mM Tris-HCl (pH 7.5), 1 mM EDTA, 1 mM dithiothreitol and 0.5 mg/ml bovine serum albumin (final concentrations) in 20 μl separate reactions. The final concentrations of the [^3H]cytosine-DNA (C) and [^3H]thymine-DNA (T) substrates were 6.5 μM and 10 μM, respectively. Release of radioactivity as a function of time was measured at 37° C. These conditions are later referred to as standard conditions. Substrate synthesis and processing of samples for scintillation counting were as described in Krokan and Wittwer (1981) Nucl. Acids Res., 9: 2599-2613. Single-stranded substrate was generated by boiling double-stranded substrate for 10 min, followed by rapid cooling on ice.
(§2) For measuring release of uracil from double-stranded (U-ds) or single-stranded (U-ss) DNA the various mutant enzymes (prepared as described in Example 1 and by analogous site-directed mutagenesis methods and identical expression and purification methods) were incubated with 200 ng ds- or ss-[^3H]dUMP-labelled DNA (500 mCi/mmol, 2 μM final concentration) in 20 μl separate reactions for 10 min under standard conditions as described in Example 1. For measuring release of [^3H]cytosine or [^3H]thymine, assays were performed as described in Example 1 using an incubation time of 10 min. Uracil inhibition was analysed by adding 5 mM uracil (final concentration) to a standard U-ds assay. 0 activity indicates activity below detection limit (10 pmol per mg protein per min) with 100 ng enzyme and 200 ng DNA substrate at standard conditions.

| Molecule | U-ds, pmol excised per min per mg protein |
| --- | --- |
| B1 | 3.2 × 10^7 pmol excised per min per mg protein |
| B2 | 3.1 × 10^6 pmol excised per min per mg protein |
| B3 | 1.3 × 10^5 pmol excised per min per mg protein |
| B4 | 5.5 × 10^4 pmol excised per min per mg protein |
| B5 | 1.4 × 10^4 pmol excised per min per mg protein |
| B6 | 1.5 × 10^6 pmol excised per min per mg protein |
| B7 | 3.4 × 10^4 pmol excised per min per mg protein |

same assay, conditions: single-stranded uracil DNA, 2 μM, 10 min, 37° C.; 0 = below detection limit

| Molecule | U-ss, pmol excised per min per mg protein |
| --- | --- |
| B1 | 6.3 × 10^7 pmol excised per min per mg protein |
| B2 | 5.6 × 10^6 pmol excised per min per mg protein |
| B3 | 2.6 × 10^5 pmol excised per min per mg protein |
| B4 | 8.5 × 10^4 pmol excised per min per mg protein |
| B5 | 1.1 × 10^4 pmol excised per min per mg protein |
| B6 | 2.2 × 10^6 pmol excised per min per mg protein |
| B7 | 4.8 × 10^4 pmol excised per min per mg protein |

tested on: [^3H]cytosine-labelled DNA; assay: Release of [3H]cytosine from ds or ss labelled DNA; assay type: biochemical; conditions: double-stranded cytosine DNA, 6.5 μM, 10 min; 0 = below detection limit
Procedure: as §1, §2

| Molecule | C-ds, pmol excised per min per mg protein |
| --- | --- |
| B1 | 0 pmol excised per min per mg protein |
| B2 | 0 pmol excised per min per mg protein |
| B3 | 0 pmol excised per min per mg protein |
| B4 | 0 pmol excised per min per mg protein |
| B5 | 0 pmol excised per min per mg protein |
| B6 | 0 pmol excised per min per mg protein |
| B7 | 0 pmol excised per min per mg protein |

same assay, conditions: single-stranded cytosine DNA, 6.5 μM, 10 min; 0 = below detection limit

| Molecule | C-ss, pmol excised per min per mg protein |
| --- | --- |
| B1 | 0 pmol excised per min per mg protein |
| B2 | 0 pmol excised per min per mg protein |
| B3 | 0 pmol excised per min per mg protein |
| B4 | 0 pmol excised per min per mg protein |
| B5 | 0 pmol excised per min per mg protein |
| B6 | 0 pmol excised per min per mg protein |
| B7 | 0 pmol excised per min per mg protein |

tested on: [^3H]thymine-labelled DNA; assay: Release of [3H]thymine from ds or ss labelled DNA; assay type: biochemical; conditions: double-stranded thymine DNA, 10 μM, 10 min; 0 = below detection limit
Procedure: as §1, §2

| Molecule | T-ds, pmol excised per min per mg protein |
| --- | --- |
| B1 | 0 pmol excised per min per mg protein |
| B2 | 0 pmol excised per min per mg protein |
| B3 | 0 pmol excised per min per mg protein |
| B4 | 0 pmol excised per min per mg protein |
| B5 | 0 pmol excised per min per mg protein |
| B6 | 0 pmol excised per min per mg protein |
| B7 | 0 pmol excised per min per mg protein |

same assay, conditions: single-stranded thymine DNA, 10 μM, 10 min; 0 = below detection limit

| Molecule | T-ss, pmol excised per min per mg protein |
| --- | --- |
| B1 | 0 pmol excised per min per mg protein |
| B2 | 0 pmol excised per min per mg protein |
| B3 | 0 pmol excised per min per mg protein |
| B4 | 0 pmol excised per min per mg protein |
| B5 | 0 pmol excised per min per mg protein |
| B6 | 0 pmol excised per min per mg protein |
| B7 | 0 pmol excised per min per mg protein |

tested on: [^3H]dUMP-labelled DNA; assay: Uracil inhibition in standard U-ds assay; assay type: biochemical; conditions: 5 mM uracil added to standard U-ds assay
Procedure: as §2

| Molecule | Inhibition 5 mM Uracil |
| --- | --- |
| B1 | 50% |
| B2 | 80% |
| B3 | 75% |
| B4 | 80% |
| B5 | 80% |
| B6 | 70% |
| B7 | 25% |

tested on: [^3H]dUMP-labelled DNA; assay: Kinetic parameters on uracil substrate; assay type: biochemical; conditions: U-ds substrate
Procedure: The final concentrations of the [^3H]cytosine-DNA (C) and [^3H]thymine-DNA (T) substrates were 6.5 μM and 10 μM, respectively. Release of radioactivity as a function of time was measured at 37° C. These conditions are later referred to as standard conditions. Substrate synthesis and processing of samples for scintillation counting were as described in Krokan and Wittwer (1981) Nucl. Acids Res., 9: 2599-2613. Single-stranded substrate was generated by boiling double-stranded substrate for 10 min, followed by rapid cooling on ice.
The kinetic parameters were determined using six different substrate concentrations to obtain the Km and Vmax values. Duplicate samples were incubated for 20 min using standard assay buffer conditions and substrates as specified. Km and Vmax were calculated using the computer program Enzpack, version 3.0 after the method of Wilkinson (1961) Biochem. J., 80: 324-332.

| Molecule | Km |
| --- | --- |
| B1 | 0.16 µM |
| B6 | 0.4 µM |

same assay, conditions: U-ds substrate; calculated from Vmax assuming Mr=25000

| Molecule | Kcat |
| --- | --- |
| B1 | 20.42 s⁻¹ |
| B6 | 1.1 s⁻¹ |

same assay, conditions: U-ss substrate

| Molecule | Km |
| --- | --- |
| B1 | 0.1 µM |
| B6 | 0.23 µM |

same assay, conditions: U-ss substrate; calculated from Vmax assuming Mr=25000

| Molecule | Kcat |
| --- | --- |
| B1 | 39.5 s⁻¹ |
| B6 | 1.48 s⁻¹ |
